In the supplement of paper PMC10126150:
± gives the standard deviation of the averaged measurements.

system: ATP; assay: switch fluorescence ratio, 500 uM ATP over buffer (Cy3 cluster intensity, sum of 5 cycles each) (fold (ratio)); higher = stronger signal-on switching upon ATP binding; sequences stand for … in TCGTCGGCAGCGTCAGATGTGTATAAGAGACAGTTTTTTTTTTTTTTTTTTTTTTTTT…TC; conditions: aptamer strand: ATP DNA aptamer (quencher-CACCTGGGGGAGTATTGCGGAGGAAGG + anchor), 100 nM annealed; ATP concentration: 500 uM
Outline: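 Switching-strand clusters labelled with Cy3 on a modified Illumina MiSeq flow-cell were annealed to 100 nM quencher-labelled ATP aptamer, imaged in selection buffer, and re-imaged after 15 min with 500 uM ATP at 22 °C. This was done over five cycles with NaOH stripping and re-annealing in between. The fluorescence ratio is summed target-cycle over summed buffer-cycle Cy3 intensity per cluster, averaged per switch-domain sequence, excluding clusters outside 100-1000 RFU.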
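Also: ATP exposure 15 min at 22 °C before imaging.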

Sequence | switch fluorescence ratio
TTGATTTTTT | 0.996 ± 0.029
TTGCAAAAGC | 1 ± 0.065
TTGCAACTTT | 1.12 ± 0.17
TTGCAAGAAT | 1.023 ± 0.0021
TTGCAAGCGG | 0.995 ± 0.011
TTGCACCGGT | 1.034 ± 0.0055
TTGCACGGGT | 1.01 ± 0.02
TTGCAGGAGG | 1 ± 0.019
TTGCAGGGT | 0.9804 ± 0.0019
TTGCATAGGG | 1.02 ± 0.023
TTGCATATTT | 1.05 ± 0.033
TTGCATGGTG | 1.06 ± 0.03
TTGCCAAGTG | 1.01 ± 0.02
TTGCCATGTG | 1 ± 0.034
TTGCCGATAC | 2.16 ± 0.12
TTGCCGCTTG | 1.21 ± 0.33
TTGCCGGGAG | 1.02 ± 0.066
TTGCCGGTAT | 1.05 ± 0.021
TTGCCGTTCA | 1.02 ± 0.013
TTGCCTGCAT | 1.011 ± 0.0092
TTGCCTTCCG | 2.17 ± 0.27
TTGCGAGCTT | 0.986 ± 0.061
TTGCGAGGGG | 0.9778 ± 0.006
TTGCGATGGG | 0.995 ± 0.03
TTGCGCGGGG | 1.02 ± 0.077

Sequence | switch fluorescence ratio
TTGCGGCGTG | 0.956 ± 0.024
TTGCGGGAAC | 1.07 ± 0.063
TTGCGGGGAA | 1.03 ± 0.029
TTGCGGGGGA | 1.01 ± 0.028
TTGCGGGGT | 1.02 ± 0.011
TTGCGGTTAG | 1.012 ± 0.0017
TTGCGGTTGA | 1.0313 ± 0.00057
TTGCGGTTGG | 1 ± 0.076
TTGCGTATGC | 1.08 ± 0.11
TTGCTAATAT | 1.038 ± 0.0093
TTGCTACAGT | 1.01 ± 0.019
TTGCTATCAG | 1 ± 0.047
TTGCTCAGGG | 1.03 ± 0.041
TTGCTCGCCG | 1.08 ± 0.035
TTGCTCTAAC | 0.998 ± 0.022
TTGCTCTCTT | 0.98 ± 0.083
TTGCTCTTTT | 1.019 ± 0.0013
TTGCTGGGTG | 1.1 ± 0.056
TTGCTGGTTG | 1.01 ± 0.03
TTGCTGTACT | 1.02 ± 0.021
TTGCTGTGTC | 1.07 ± 0.028
TTGCTGTTGG | 1.03 ± 0.033
TTGCTGTTGT | 1.01 ± 0.022
TTGCTTAAGT | 1.03 ± 0.075
TTGCTTCCAC | 1.08 ± 0.032

Sequence | switch fluorescence ratio
TTGCTTGGTT | 0.996 ± 0.011
TTGCTTTGTC | 0.994 ± 0.013
TTGCTTTTAT | 0.991 ± 0.024
TTGGAAAAGG | 1.02 ± 0.029
TTGGAAAATT | 1.21 ± 0.35
TTGGAAATTG | 1.01 ± 0.019
TTGGAATATT | 0.9812 ± 0.0027
TTGGACATAT | 1.008 ± 0.0039
TTGGACATGG | 0.963 ± 0.012
TTGGACCATG | 1.01 ± 0.038
TTGGACGGTT | 1 ± 0.015
TTGGACTAGC | 0.981 ± 0.033
TTGGACTAGT | 1.018 ± 0.0023
TTGGAGAAGG | 0.998 ± 0.018
TTGGAGCCCT | 1.069 ± 0.0022
TTGGAGGGGT | 1.09 ± 0.15
TTGGAGTCCC | 0.99 ± 0.022
TTGGAGTTCG | 0.982 ± 0.013
TTGGAGTTG | 1.02 ± 0.048
TTGGATGGGG | 0.972 ± 0.017
TTGGATTGGC | 0.978 ± 0.023
TTGGATTTAA | 1.02 ± 0.012
TTGGCAAGCT | 1.06 ± 0.072
TTGGCACGTG | 0.985 ± 0.061
TTGGCAGATG | 1 ± 0.043

Sequence | switch fluorescence ratio
TTGGCATATC | 1.89 ± 0.76
TTGGCATGAG | 0.987 ± 0.02
TTGGCATGCG | 1.01 ± 0.021
TTGGCCATCG | 0.954 ± 0.039
TTGGCCATGA | 0.976 ± 0.029
TTGGCCGGG | 0.9643 ± 0.009
TTGGCGCGCA | 1.023 ± 0.0016
TTGGCGCTGG | 0.993 ± 0.026
TTGGCTAATA | 1.01 ± 0.018
TTGGCTACTG | 0.962 ± 0.065
TTGGCTAGTT | 1 ± 0.029
TTGGCTGTTT | 1.016 ± 0.01
TTGGCTTTGA | 0.9893 ± 0.0097
TTGGGAAATA | 1.01 ± 0.024
TTGGGAACTA | 1.01 ± 0.02
TTGGGAATA | 0.988 ± 0.035
TTGGGAATTC | 0.98044 ± 0.00048
TTGGGACTAC | 1.02 ± 0.036
TTGGGACTTG | 0.999 ± 0.054
TTGGGAGATT | 0.971 ± 0.024
TTGGGAGCGT | 1.01 ± 0.017
TTGGGAGCTG | 1.021 ± 0.0068
TTGGGAGGGT | 0.999 ± 0.029
TTGGGATTCG | 1.01 ± 0.013
TTGGGATTTA | 0.95 ± 0.015

Sequence | switch fluorescence ratio
TTGGGCAGAG | 0.993 ± 0.043
TTGGGCGTCG | 0.995 ± 0.047
TTGGGCTCTA | 1.002 ± 0.0012
TTGGGCTGCT | 0.9743 ± 0.00051
TTGGGGAAGT | 0.994 ± 0.039
TTGGGGACGT | 1.01 ± 0.042
TTGGGGAGAA | 0.98 ± 0.035
TTGGGGCAGG | 1.1 ± 0.07
TTGGGGCATG | 0.971 ± 0.011
TTGGGGCTAG | 1.02 ± 0.026
TTGGGGGAAT | 0.992 ± 0.026
TTGGGGGACC | 0.998 ± 0.025
TTGGGGGCAG | 1.01 ± 0.018
TTGGGGGGGG | 1.01 ± 0.056
TTGGGGGGT | 1.06 ± 0.012
TTGGGGGTCA | 1.01 ± 0.023
TTGGGGGTCG | 1.02 ± 0.034
TTGGGGGTGT | 1.03 ± 0.1
TTGGGGTACG | 1.01 ± 0.021
TTGGGGTCAG | 1 ± 0.038
TTGGGGTCCA | 0.977 ± 0.015
TTGGGGTCGT | 0.974 ± 0.03
TTGGGGTGGA | 0.99 ± 0.018
TTGGGGTTGG | 1.01 ± 0.03
TTGGGTAGAT | 0.988 ± 0.025

Sequence | switch fluorescence ratio
TTGGGTAGGG | 1.01 ± 0.051
TTGGGTCATG | 1.036 ± 0.0048
TTGGGTGTTA | 0.9907 ± 0.0021
TTGGGTTAGT | 1.01 ± 0.019
TTGGGTTCAA | 1.4 ± 0.52
TTGGTACATT | 0.99163 ± 8.4e-05
TTGGTAGGAG | 0.985 ± 0.042
TTGGTAGTCT | 1.04 ± 0.012
TTGGTAGTGG | 0.977 ± 0.028
TTGGTAGTTG | 0.954 ± 0.011
TTGGTATTGA | 0.99 ± 0.098
TTGGTCGGG | 0.98 ± 0.044
TTGGTCTTAC | 1.06 ± 0.096
TTGGTCTTGA | 0.994 ± 0.018
TTGGTGACGG | 0.986 ± 0.013
TTGGTGAGGG | 0.978 ± 0.022
TTGGTGGAAG | 1.02 ± 0.0057
TTGGTGGACA | 0.976 ± 0.026
TTGGTGTAGC | 0.972 ± 0.026
TTGGTGTGAC | 1.05 ± 0.065
TTGGTGTTCA | 0.996 ± 0.013
TTGGTTAAAT | 1.01 ± 0.026
TTGGTTAATG | 1.01 ± 0.019
TTGGTTCCAT | 1.02 ± 0.017
TTGGTTCGAC | 0.962 ± 0.04

Sequence | switch fluorescence ratio
TTGGTTCGTT | 0.994 ± 0.025
TTGGTTGACG | 0.963 ± 0.041
TTGGTTGCG | 1.02 ± 0.026
TTGGTTGTCG | 1.02 ± 0.019
TTGGTTTACT | 1.22 ± 0.3
TTGGTTTCCC | 1.01 ± 0.02
TTGGTTTTGC | 0.99 ± 0.019
TTGGTTTTT | 0.993 ± 0.019
TTGTAAGGGT | 0.978 ± 0.017
TTGTAATTAC | 1.3 ± 0.44
TTGTAATTCG | 1.02 ± 0.05
TTGTAATTTT | 0.991 ± 0.017
TTGTACGGGG | 0.985 ± 0.03
TTGTACTATC | 1.01 ± 0.063
TTGTAGCTGT | 1.12 ± 0.13
TTGTAGGGAT | 1.43 ± 0.77
TTGTAGGGGG | 1.17 ± 0.4
TTGTAGTTAT | 1.09 ± 0.16
TTGTATATAT | 1.49 ± 0.81
TTGTATGGGA | 1.001 ± 0.0069
TTGTATGTGT | 0.983 ± 0.032
TTGTATTGCC | 1.02 ± 0.018
TTGTATTTGC | 0.976 ± 0.031
TTGTCAGAGT | 1.001 ± 0.0015
TTGTCATCTG | 1.01 ± 0.012

Sequence | switch fluorescence ratio
TTGTCCCGTG | 1.01 ± 0.026
TTGTCGCTGT | 1.14 ± 0.19
TTGTCGGGTT | 1.01 ± 0.018
TTGTCGTCTC | 0.986 ± 0.041
TTGTCTGGGC | 0.984 ± 0.032
TTGTGAAGCA | 1.025 ± 0.0054
TTGTGAAGGT | 1.05 ± 0.044
TTGTGAGTGC | 0.91 ± 0.023
TTGTGATAGA | 1.06 ± 0.052
TTGTGATCTT | 0.961 ± 0.02
TTGTGATGGA | 0.9896 ± 0.008
TTGTGATTCT | 0.97032 ± 0.00028
TTGTGATTGT | 1.01 ± 0.016
TTGTGCAAGT | 1.01 ± 0.013
TTGTGCGACT | 0.98 ± 0.019
TTGTGCTATT | 1.26 ± 0.32
TTGTGGAATT | 0.966 ± 0.02
TTGTGGATG | 0.962 ± 0.017
TTGTGGGG | 0.992 ± 0.021
TTGTGGGGCG | 0.986 ± 0.068
TTGTGGGTCC | 1.013 ± 0.0093
TTGTGGGTGT | 1.004 ± 0.0082
TTGTGGTATT | 0.99 ± 0.0084
TTGTGGTCGT | 0.9859 ± 0.0074
TTGTGGTGTG | 0.984 ± 0.049
